Like-named read-outs stand apart in the source and are kept apart here.

Consider one substance from patent US9610329B2 (Albireo Pharma, Inc., priority 2009, dated 2017).

For series [1] the following is noted: cited from earlier work.
A short description of series [2]: Accelerated stability study at 37° C., BIOD 901 compared to Lilly glucagon (Example 3). It is filed as physicochemical. The note with it: in solution at pH 4.
The conditions of series [3]: cited from earlier work. The source holds these as a separate data set.

As for glucagon, the “onset of action post injection” value in series [1] is 5 to 20 min. Besides, the time to gel in series [2] is recorded as at most 2 days. In addition, the gel formation entry in series [3] (acidic aqueous conditions (pH 3-4)) is recorded as “forms a gel”. The precipitation entry in series [3] (neutral aqueous solution) is “precipitates within an hour of preparation”. Besides, the figures for the “solubility in aqueous solutions” value in series [3] (pH less than 3 or greater than 9) and in series [3] (pH range of 4 to 8) were “soluble” and “low solubility”, respectively.
